Measurements taken from article PMC8924211 (Nature Communications, 2022).
Where a chain is given by its changes, count along the chain named. Several values for one entry are separate records, joined by “and”; a condition that tells them apart may be missing. Identical values can stand only once.

Legend:
[1] = biological target: SNAP-GAL2R I85^2.64A (human) (UniProt O43603)
SNAP-GAL2R L169^ECL2A [2] = biological target: T1, SNAP-GAL2R L169^ECL2A (human, UniProt O43603 1-387, L169^ECL2A, Lumi4-Tb on the SNAP tag)
T1 construct: also called L169A; source: HEK293, transfected, on cells; not shown: SNAP tag, N-terminal, kept
T1 sequence (looked up): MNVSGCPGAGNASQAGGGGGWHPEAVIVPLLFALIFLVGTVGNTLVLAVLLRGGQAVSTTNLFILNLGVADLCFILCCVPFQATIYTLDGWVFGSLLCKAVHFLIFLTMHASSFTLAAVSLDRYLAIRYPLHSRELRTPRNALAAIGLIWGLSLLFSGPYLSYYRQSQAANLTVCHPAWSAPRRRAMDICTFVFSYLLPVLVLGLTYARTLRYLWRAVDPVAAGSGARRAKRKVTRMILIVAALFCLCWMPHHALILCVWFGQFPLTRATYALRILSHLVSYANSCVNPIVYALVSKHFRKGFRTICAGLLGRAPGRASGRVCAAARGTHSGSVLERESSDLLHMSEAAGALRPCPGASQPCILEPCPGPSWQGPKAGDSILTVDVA

SNAP-GAL2R L172^ECL2A [3] = biological target: T2, SNAP-GAL2R L172^ECL2A (human, UniProt O43603 1-387, L172^ECL2A, Lumi4-Tb on the SNAP tag)
T2 construct: also called L172A; source: HEK293, transfected, on cells; not shown: SNAP tag, N-terminal, kept
T2 sequence (looked up): T1 sequence (looked up) with A169L, L172A

SNAP-GAL2R A170^ECL2S [4] = biological target: T3, SNAP-GAL2R A170^ECL2S (human, UniProt O43603 1-387, A170^ECL2S, Lumi4-Tb on the SNAP tag)
T3 construct: also called A170S; source: HEK293, transfected, on cells; not shown: SNAP tag, N-terminal, kept
T3 sequence (looked up): T1 sequence (looked up) with A169L, A170S

[5] = biological target: SNAP-GAL2R F264^ECL3A (human) (UniProt O43603)
[6] = biological target: SNAP-GAL2R Y86^2.65A (human) (UniProt O43603)
[7] = biological target: SNAP-GAL2R Q82^2.61A (human) (UniProt O43603)
SNAP-GAL2R R184^5.35A = biological target: T4, SNAP-GAL2R R184^5.35A (human, UniProt O43603 1-387, R184^5.35A, Lumi4-Tb on the SNAP tag)
T4 construct: also called R184A; source: HEK293, transfected, on cells; not shown: SNAP tag, N-terminal, kept
T4 sequence (looked up): T1 sequence (looked up) with A169L, R184A

SNAP-GAL2R L255^6.54A = biological target: T5, SNAP-GAL2R L255^6.54A (human, UniProt O43603 1-387, L255^6.54A, Lumi4-Tb on the SNAP tag)
T5 construct: also called L255A; source: HEK293, transfected, on cells; not shown: SNAP tag, N-terminal, kept
T5 sequence (looked up): T1 sequence (looked up) with A169L, L255A

SNAP-GAL2R T267^7.28A = biological target: T6, SNAP-GAL2R T267^7.28A (human, UniProt O43603 1-387, T267^7.28A, Lumi4-Tb on the SNAP tag)
T6 construct: also called T267A; source: HEK293, transfected, on cells; not shown: SNAP tag, N-terminal, kept
T6 sequence (looked up): T1 sequence (looked up) with A169L, T267A

[8] = biological target: SNAP-GAL2R L266^ECL3A (human) (UniProt O43603)
SNAP-GAL2R V259^6.58A [9] = biological target: T7, SNAP-GAL2R V259^6.58A (human, UniProt O43603 1-387, V259^6.58A, Lumi4-Tb on the SNAP tag)
T7 construct: also called V259A; source: HEK293, transfected, on cells; not shown: SNAP tag, N-terminal, kept
T7 sequence (looked up): T1 sequence (looked up) with A169L, V259A

[10] = biological target: SNAP-GAL2R Y271^7.32A (human) (UniProt O43603)
SNAP-GAL2R L169^ECL2A [11] = biological target: T1, SNAP-GAL2R L169^ECL2A; remark: listed apart in the source
SNAP-GAL2R L172^ECL2A [12] = biological target: T2, SNAP-GAL2R L172^ECL2A; remark: listed apart in the source
SNAP-GAL2R A170^ECL2S [13] = biological target: T3, SNAP-GAL2R A170^ECL2S; remark: listed apart in the source
[14] = biological target: SNAP-GAL2R F264^ECL3A (human) (UniProt O43603); remark: listed apart in the source
[15] = biological target: SNAP-GAL2R L266^ECL3A (human) (UniProt O43603); remark: listed apart in the source
SNAP-GAL2R V259^6.58A [16] = biological target: T7, SNAP-GAL2R V259^6.58A; remark: listed apart in the source
[17] = biological target: SNAP-GAL2R Y271^7.32A (human) (UniProt O43603); remark: listed apart in the source
SNAP-GAL2R I256^6.55A = biological target: T8, SNAP-GAL2R I256^6.55A (human, UniProt O43603 1-387, I256^6.55A, Lumi4-Tb on the SNAP tag)
T8 construct: also called I256A; source: HEK293, transfected, on cells; not shown: SNAP tag, N-terminal, kept
T8 sequence (looked up): T1 sequence (looked up) with A169L, I256A

galanin (full length, unlabeled) (peptide)
calcium assay EC50 (galanin; HEK293/Gα16 cells) [1]: 5200 nM and 4440 nM and 1380 nM | calcium assay EC50 (galanin; HEK293/Gα16 cells) (SNAP-GAL2R L169^ECL2A [2]): 93.5 nM and 82.5 nM and 22.5 nM | calcium assay EC50 (galanin; HEK293/Gα16 cells) (SNAP-GAL2R L172^ECL2A [3]): 59 nM and 71.7 nM and 55.4 nM | calcium assay EC50 (galanin; HEK293/Gα16 cells) (SNAP-GAL2R A170^ECL2S [4]): 10 nM and 8.08 nM and 12.4 nM | calcium assay EC50 (galanin; HEK293/Gα16 cells) [5]: 1760 nM and 2390 nM and 3590 nM | calcium assay EC50 (galanin; HEK293/Gα16 cells) [6]: 3230 nM and 2210 nM | calcium assay EC50 (galanin; HEK293/Gα16 cells) [7]: 4680 nM and 4340 nM and 2980 nM | calcium assay EC50 (galanin; HEK293/Gα16 cells) (SNAP-GAL2R R184^5.35A): 138 nM and 115 nM and 58 nM | calcium assay EC50 (galanin; HEK293/Gα16 cells) (SNAP-GAL2R L255^6.54A): 153 nM and 293 nM | calcium assay EC50 (galanin; HEK293/Gα16 cells) (SNAP-GAL2R T267^7.28A): 3150 nM and 2330 nM and 1260 nM | calcium assay EC50 (galanin; HEK293/Gα16 cells) [8]: 27900 nM and 7140 nM | calcium assay EC50 (galanin; HEK293/Gα16 cells) (SNAP-GAL2R V259^6.58A [9]): 290 nM and 275 nM and 205 nM | calcium assay EC50 (galanin; HEK293/Gα16 cells) [10]: 515 nM and 678 nM and 969 nM

spexin (mature, 14 amino acids) (peptide)
calcium assay EC50 (spexin) (SNAP-GAL2R L169^ECL2A [11]): 7170 nM and 5140 nM and 1830 nM | calcium assay EC50 (spexin) (SNAP-GAL2R L172^ECL2A [12]): 3120 nM and 10800 nM and 12100 nM | calcium assay EC50 (spexin) (SNAP-GAL2R A170^ECL2S [13]): 95.4 nM and 151 nM (2×) | calcium assay EC50 (spexin) [14]: > 100000 nM | calcium assay EC50 (spexin) [15]: 25100 nM and 15300 nM and 12000 nM | calcium assay EC50 (spexin) (SNAP-GAL2R V259^6.58A [16]): 1330 nM and 6620 nM and 6150 nM | calcium assay EC50 (spexin) [17]: 5960 nM and 1580 nM and 752 nM | calcium assay EC50 (spexin) (SNAP-GAL2R I256^6.55A): 674 nM and 438 nM and 924 nM
